Laboratory results: patent US20190292247A1 (DEGENRX B V, published 2019)

Tests used:
[1] = target: T1, Stable Crossbeta oligomers (Perkin Elmer Amyloid Oligomers AlphaLISA High-Specificity Detection Kit (AL334F)) (UniProt P05067 672-713); assay: sandwich ELISA: CBB-VNAR coated at 2 µg/ml as capture, the stable oligomer concentration is varied, detection with 6E10-biotin and streptavidin-HRP; sandwich ELISA; CBB-VNAR coated 2 µg/ml as capture; stable Crossbeta oligomer titrated
T1 construct: also called Aβ-oligomers
T1 sequence (P05067 672-713): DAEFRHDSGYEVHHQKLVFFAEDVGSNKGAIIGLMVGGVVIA
Method: (§1) The generic amyloid beta binding antibody 6E10-biotin was immobilized on streptavidin Alphascreen®donor beads, while FLAG-tagged CBB-VNAR was immobilized on anti-FLAG Alphascreen®acceptor beads. These beads were incubated with different concentrations of amyloid beta 1-42 derived antigens (oligomers, monomers, fibrils, all prepared as described in example 1). In this format, a specific signal is generated when donor/6E10 and acceptor/CBB-VNAR beads simultaneously bind to different epitopes on the same molecule. […] Plates were then read using a Perkinelmer Enspire® plate reader using the 384 well factory preset measuring protocol. […] Stable Crossbeta oligomers (Perkin Elmer Amyloid Oligomers AlphaLISA High-Specificity Detection Kit (AL334F)) were also detected using an ELISA sandwich immunoassay format where the CBB-VNAR was immobilized to Nunc amino immobilizer plates (2 μg/ml coating, 1 hr rT) to serve as oligomer capture molecule. After incubation of the CBB-VNAR coated wells with different amounts of stable oligomer for 1 hour, wells were washed and bound oligomer was detected using sequential incubation with 6E10-biotin and streptavidin-HRP as described in example 1.

[2] = target: T2, amyloid beta 1-42 oligomer (UniProt P05067 672-713); assay: ELISA on immobilized oligomer (5 µg/ml), anti-FLAG-M2-HRP detection; ng/ml, as measured in the ELISA
T2 construct: domain: amyloid beta 1-42; Soluble oligomeric aggregate; also called Aβ-oligomers; oligomeric amyloid beta 1-42
T2 sequence (P05067 672-713 limits assumed): as the sequence (P05067 672-713) above
Method: To probe the binding affinities of CBB-VNAR towards different amyloid beta species and aggregation states, ELISA assays were performed. As a comparator antibody, the well-characterized 6E10 antibody was used. The 6E10 antibody recognizes N-terminal amino acid residues 3-8 of amyloid beta (EFRHDS), an epitope that is present and available for antibody binding in amyloid beta 1-42 derived antigens regardless of the physical form or aggregation state (Crisostomo et al., 2015. Data Brief. 2015 Aug. 6; 4:650-8.; Frenzel et al., 2014. PLoS One. 2014 Mar. 3; 9(3):e89490). Amyloid beta aggregates were prepared by incubation of monomeric synthetic amyloid beta 1-42 monomer in either F-12 medium (for oligomers) or 10 mM HCl (for fibrils) essentially as described by Dahlgren et al. (2002. J Biol Chem. 2002 Aug. 30; 277(35):32046-53). Amyloid beta derived antigens in different forms (oligomer, monomer, fibril, all at 5 μg/ml) were immobilized to Nunc Amino Immobilizer plates and blocked with ethanolamine according to the manufacturer's instructions. After washing, plates were probed with different concentrations of either FLAG-tagged CBB-VNAR or biotinylated 6E10 antibody (in parallel and on the same plates) for 1 hour. Bound antibody was then detected using anti-FLAG-M2-HRP (for CBB-VNAR) or with streptavidin-HRP (for 6E10-biotin). […]

[3] = target: T2, amyloid beta 1-42 oligomer; assay: intrinsic Trp fluorescence quenching; the varied concentration is that of the oligomer (ABO), with CBB-VNAR fixed at 0.5 uM
Text: Therefore, Trp emission is widely used to study proteins and their interaction with other proteins or small molecules. The invariable core structure of the VNAR as isolated from wobbegong sharks has two Trp residues (see sequence below, Trp indicated in black) of which one is buried inside the protein whereas the other is exposed to the solvent (see FIG. 5D). The CBB-VNAR has two additional Trp residues in the CDR regions (one in CDR1, one in CDR3). No Trp residues are present in the CDR regions of the 12Y2 control protein. Apart from the CDR sequences, this control 12Y2 protein has an amino acid sequence identical to that of CBB-VNAR. To evaluate whether the Trp residues of CBB-VNAR are involved in the binding of amyloid beta oligomer antigen, a fluorescence titration study was performed. For this experiment, 0.5 uM CBB-VNAR or 12Y2 control VNAR were titrated with known quantities of amyloid beta oligomer (ABO) in Phosphate Buffered Saline (PBS) buffer, pH 7.2. […] After each ABO addition, the sample was equilibrated until the Trp fluorescence intensity was stable, and Trp emission spectra were recorded between 320 and 450 nm using 280 nm excitation. […] Upon addition of ABO, the emission intensity of CBB-VNAR decreases in a dose-dependent and saturable fashion where the intensity decreases to about 70% of the intensity measured for the native protein (FIGS. 5A and C). […]

[4] = target: T2, amyloid beta 1-42 oligomer; assay: Alphascreen proximity sandwich: 6E10-biotin on streptavidin donor beads, CBB-VNAR on anti-FLAG acceptor beads; the oligomer concentration is varied; Alphascreen bead sandwich with 6E10-biotin; oligomer in solution titrated; apparent EC50
Method: as §1

[5] = target: T2, amyloid beta 1-42 oligomer; assay: intrinsic Trp fluorescence titration, 0.5 uM CBB-VNAR in PBS pH 7.2 with 0.5 mM EDTA, excitation 280 nm
Text: The amino acid residue tryptophan (Trp or W) intrinsically fluoresces upon excitation in the range 280-295 nm. The emission intensity (i.e. quantum yield) and emission wavelength are sensitive towards the local environment of the Trp residue. The local environment can change, for example, when the Trp residue is involved in conformational changes or ligand binding. Therefore, Trp emission is widely used to study proteins and their interaction with other proteins or small molecules. […] To evaluate whether the Trp residues of CBB-VNAR are involved in the binding of amyloid beta oligomer antigen, a fluorescence titration study was performed. For this experiment, 0.5 uM CBB-VNAR or 12Y2 control VNAR were titrated with known quantities of amyloid beta oligomer (ABO) in Phosphate Buffered Saline (PBS) buffer, pH 7.2. […] After each ABO addition, the sample was equilibrated until the Trp fluorescence intensity was stable, and Trp emission spectra were recorded between 320 and 450 nm using 280 nm excitation. […] Upon addition of ABO, the emission intensity of CBB-VNAR decreases in a dose-dependent and saturable fashion where the intensity decreases to about 70% of the intensity measured for the native protein (FIGS. 5A and C). […]

B1: CBB-VNAR (FLAG-tagged) (VNAR)
VNAR: AWVDQTPRTATKETGESLTINCVLRDQNGWSRTGWYRTKLGSTNEQSISIGGRYVETVNKGSKSFSLRISDLRVEDSGTYKCQALLNPRREEFWFSRRYPVVKGAGTALTVKA
notes: Monomeric shark-type VNAR single domain (Mw 15 kDa); not shown: FLAG tag
- EC50 [1]: 0.01 µg/mL
- EC50 [2]: 0.004 µg/mL
- EC50 (read off the curve) [3]: ~8 µg/mL
- EC50 [4]: 0.1 µg/mL
- Trp emission intensity at saturation with oligomer, relative to the native protein [5]: ~70%
